According to patent publication US20120270914A1, “SPLIT-LUCIFERASE C-MYC SENSOR AND USES THEREOF” (THE BOARD OF TRUSTEES OF THE LELAND STANFORD JUNIOR …, priority 2011, published 2012):

Biological target: NFL-c-Myc T581 (firefly) [luciferase: P08659]
Assay: cell-based or functional assay

NFL-c-Myc T581 (firefly) [luciferase: P08659], sequence (P08659 other isoform, or with tags, fused parts or gaps): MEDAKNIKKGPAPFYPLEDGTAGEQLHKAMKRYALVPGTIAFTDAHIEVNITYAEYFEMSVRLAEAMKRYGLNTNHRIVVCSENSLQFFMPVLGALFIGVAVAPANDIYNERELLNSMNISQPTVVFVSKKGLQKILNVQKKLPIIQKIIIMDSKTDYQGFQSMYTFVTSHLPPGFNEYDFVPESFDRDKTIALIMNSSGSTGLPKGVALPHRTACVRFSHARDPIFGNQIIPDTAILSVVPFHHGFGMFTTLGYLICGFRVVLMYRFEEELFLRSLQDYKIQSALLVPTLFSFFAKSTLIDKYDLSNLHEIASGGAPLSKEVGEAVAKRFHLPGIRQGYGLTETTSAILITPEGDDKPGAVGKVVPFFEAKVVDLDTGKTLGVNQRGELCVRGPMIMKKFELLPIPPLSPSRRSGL

- complemented FL activity of SKBR3 xenografts in nude mice, normalized to hRL activity, compared with pcDNA3.1(+) vector: 4.7 fold
B1: GSK 35-433-CFL, P49841 35-420 (protein, not shown: large carriers)
chain: SKVTTVVATPGQGPDRPQEVSYTDTKVIGNGSFGVVYQAKLCDSGELVAIKKVLQDKRFKNRELQIMRKLDHCNIVRLRYFFYSSGEKKDEVYLNLVLDYVPETVYRVARHYSRAKQTLPVIYVKLYMYQLFRSLAYIHSFGICHRDIKPQNLLLDPDTAVLKLCDFGSAKQLVRGEPNVSYICSRYYRAPELIFGATDYTSSIDVWSAGCVLAELLLGQPIFPGDSGVDQLVEIIKVLGTPTREQIREMNPNYTEFKFPQIKAHPWTKDSSGTGHFTSGVRVFRPRTPPEAIALCSRLLEYTPTARLTPLEACAHSFFDELRDPNVKLPNGRDTPALFNFTTQELSSNPPLATILIPPHARIQAAASTPTNATAASDANTGDRGQTNNAASASASNST
modifications: here or on the partner: phosphorylation partially abolished (T58 cannot be phosphorylated)
